# Source: patent US7105305
# Target: type B human PDGF receptor (B-hPDGF-R) on transfected CHO cells (CHO-HR5) (human) (UniProt P09619)
# Test: whole-cell 125I-PDGF binding, 37 C for 45 min, Ficoll gradient; non-specific binding taken from CHO cells
# Chain of type B human PDGF receptor (B-hPDGF-R) on transfected CHO cells (CHO-HR5) (human) (P09619 33-1106 E241D): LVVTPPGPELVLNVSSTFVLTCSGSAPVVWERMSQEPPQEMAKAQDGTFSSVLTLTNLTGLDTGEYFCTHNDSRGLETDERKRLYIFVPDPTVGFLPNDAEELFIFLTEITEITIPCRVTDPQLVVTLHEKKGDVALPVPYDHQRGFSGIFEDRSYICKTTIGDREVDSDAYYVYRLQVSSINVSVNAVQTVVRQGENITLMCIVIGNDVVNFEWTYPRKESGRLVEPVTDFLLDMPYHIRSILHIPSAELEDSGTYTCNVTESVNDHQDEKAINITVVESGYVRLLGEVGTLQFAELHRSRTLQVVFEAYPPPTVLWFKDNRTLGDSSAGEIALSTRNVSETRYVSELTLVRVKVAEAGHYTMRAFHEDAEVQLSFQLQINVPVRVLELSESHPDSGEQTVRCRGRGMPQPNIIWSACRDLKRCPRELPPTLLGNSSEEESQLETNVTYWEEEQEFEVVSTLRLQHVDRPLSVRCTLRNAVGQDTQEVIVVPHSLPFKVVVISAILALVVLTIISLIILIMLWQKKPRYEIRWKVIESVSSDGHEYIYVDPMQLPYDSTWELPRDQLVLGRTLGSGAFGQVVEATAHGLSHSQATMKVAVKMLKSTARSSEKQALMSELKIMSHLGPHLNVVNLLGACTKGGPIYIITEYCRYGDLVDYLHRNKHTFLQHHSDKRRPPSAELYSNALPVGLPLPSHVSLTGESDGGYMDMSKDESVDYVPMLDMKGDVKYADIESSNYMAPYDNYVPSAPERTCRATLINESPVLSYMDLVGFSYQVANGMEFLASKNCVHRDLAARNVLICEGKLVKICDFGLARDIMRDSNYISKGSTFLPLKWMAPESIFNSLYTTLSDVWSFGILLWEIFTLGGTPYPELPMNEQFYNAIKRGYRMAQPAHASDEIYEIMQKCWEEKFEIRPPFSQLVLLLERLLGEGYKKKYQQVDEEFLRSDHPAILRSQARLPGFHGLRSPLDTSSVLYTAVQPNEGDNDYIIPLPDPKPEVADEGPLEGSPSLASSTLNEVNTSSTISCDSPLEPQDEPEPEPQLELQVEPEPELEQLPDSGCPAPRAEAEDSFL
substance,measurement,value
^125I-labeled PDGF (ligand),non-specific binding as percent of the bound radioactivity,25 percent
